Here are results for 1 molecule from CN116769729A (UNIV SCIENCE & TECHNOLOGY CHINA, dated 2023).

Assay [1] has as its target T1, 小鼠CD150胞外段蛋白 (CD150m, hFc removed by TEV cleavage) (mouse, UniProt Q9QUM4 25-242).
T1 construct: The monomeric protein was used; In the BLI assay the protein was biotinylated (biotin-CD150); also called CD150蛋白; biotin-CD150
T1 sequence: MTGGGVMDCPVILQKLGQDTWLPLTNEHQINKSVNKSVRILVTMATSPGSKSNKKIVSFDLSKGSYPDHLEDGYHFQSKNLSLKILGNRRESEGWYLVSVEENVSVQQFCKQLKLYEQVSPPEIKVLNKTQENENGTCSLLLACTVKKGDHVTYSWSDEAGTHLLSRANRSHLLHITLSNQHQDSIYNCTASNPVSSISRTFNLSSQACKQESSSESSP
The assay can be described thus: indirect ELISA, CD150 protein coated at 0.25 μg/ml, HRP anti-rat IgG detection. (In general: ELISA stands for enzyme-linked immunosorbent assay.)

Assay [2] concerns the target T2, 小鼠CD150 on mouse spleen cells (mouse, UniProt Q9QUM4 25-343).
T2 construct: This is endogenous CD150 on mouse splenocytes in the flow cytometry assay
T2 sequence: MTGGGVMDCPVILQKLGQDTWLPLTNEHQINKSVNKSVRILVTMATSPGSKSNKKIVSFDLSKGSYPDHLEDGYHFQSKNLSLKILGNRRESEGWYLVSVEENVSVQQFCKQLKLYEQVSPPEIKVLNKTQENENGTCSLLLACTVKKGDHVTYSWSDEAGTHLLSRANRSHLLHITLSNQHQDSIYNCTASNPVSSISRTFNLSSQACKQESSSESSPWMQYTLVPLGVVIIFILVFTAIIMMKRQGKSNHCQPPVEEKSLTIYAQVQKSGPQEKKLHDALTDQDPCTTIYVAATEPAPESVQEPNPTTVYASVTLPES
The assay is described as follows: flow cytometry on mouse spleen cells.

B1: 抗CD150单克隆抗体 (produced by rat hybridoma mCD150-mAb-1, CGMCC No.45539) (antibody, V domains shown)
VH: QIQLVQSGPELKKPGESVKISCKASGYTFTDYAMNWVKQAPGNGLKWMGYINTQTGKPTYADDFKQRFVFSLETSASTAYLQINNLNIEDTATYFCTRYNSGNWFAYWGQGTLVTVSS
VL: DIQMTQTPSSMPASLGERVTISCRAGQGISNYLNWYQQKPDGAIKPLIYYTSNLQSGVPSRFSGSGSGTDYSLTISSLEPEDFAMYYCQQYDSSPYTFGAGTKLELK
notes: also called CD150的单抗; 抗CD150抗体
For B1, a half-maximal response in assay [1] (EC50) required 1.13 µg/mL. In addition, the binding result in assay [2] is listed as “binds”.

Broadly, the EC50 is the midpoint of the concentration-response curve. The low end stands for a more potent agent, the high end for a less potent agent.
